Like-named read-outs stand apart in the source and are kept apart here. Each block holds one binder with its values, some of them ahead of it.
Assays:
His6-MBP-Ctc1 [1] = molecular target: T1, His6-MBP-Ctc1 (human, UniProt Q2NKJ3 1-1217); assay: cryo-EM structure
T1 sequence: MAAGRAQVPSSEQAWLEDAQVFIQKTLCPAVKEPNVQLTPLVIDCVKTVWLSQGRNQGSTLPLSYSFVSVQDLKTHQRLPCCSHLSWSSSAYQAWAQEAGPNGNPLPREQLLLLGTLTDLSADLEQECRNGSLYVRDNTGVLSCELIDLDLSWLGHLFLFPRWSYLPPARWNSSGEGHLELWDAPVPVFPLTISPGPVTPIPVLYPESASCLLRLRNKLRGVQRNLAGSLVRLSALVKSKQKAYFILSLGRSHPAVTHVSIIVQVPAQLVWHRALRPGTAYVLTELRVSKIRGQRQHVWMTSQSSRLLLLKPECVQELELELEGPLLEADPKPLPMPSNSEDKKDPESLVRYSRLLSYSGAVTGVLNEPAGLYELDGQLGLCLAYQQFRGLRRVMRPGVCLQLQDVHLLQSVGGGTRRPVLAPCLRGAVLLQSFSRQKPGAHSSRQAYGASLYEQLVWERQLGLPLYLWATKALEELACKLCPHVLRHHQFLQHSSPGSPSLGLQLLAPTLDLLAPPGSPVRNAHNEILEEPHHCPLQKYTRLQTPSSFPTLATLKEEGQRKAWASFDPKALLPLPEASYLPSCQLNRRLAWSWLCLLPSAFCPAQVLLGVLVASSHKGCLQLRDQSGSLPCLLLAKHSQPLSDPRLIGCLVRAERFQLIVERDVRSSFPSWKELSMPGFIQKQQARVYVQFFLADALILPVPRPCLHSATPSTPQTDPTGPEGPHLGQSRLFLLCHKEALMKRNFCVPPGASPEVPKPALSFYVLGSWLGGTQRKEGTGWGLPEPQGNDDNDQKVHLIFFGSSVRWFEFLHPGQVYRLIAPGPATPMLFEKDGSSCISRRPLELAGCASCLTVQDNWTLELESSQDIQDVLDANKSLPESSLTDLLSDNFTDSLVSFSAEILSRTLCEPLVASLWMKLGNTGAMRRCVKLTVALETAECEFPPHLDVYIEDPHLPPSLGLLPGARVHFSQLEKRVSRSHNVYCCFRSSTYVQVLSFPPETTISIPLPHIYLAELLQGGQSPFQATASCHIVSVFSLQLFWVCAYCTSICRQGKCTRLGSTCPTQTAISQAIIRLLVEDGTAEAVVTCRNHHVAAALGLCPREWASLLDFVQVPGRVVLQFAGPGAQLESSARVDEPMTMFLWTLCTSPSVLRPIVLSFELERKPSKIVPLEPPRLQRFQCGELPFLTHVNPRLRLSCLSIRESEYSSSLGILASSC

His6-MBP-Ctc1/Stn1/Ten1 [2] = molecular target: T2, His6-MBP-Ctc1/Stn1/Ten1 (human, UniProt Q2NKJ3;Q9H668;Q86WV5); assay: SEC
[3] = molecular target: CST with the His6-MBP tag cleaved (human, UniProt Q2NKJ3;Q9H668;Q86WV5); assay: negative-stain EM
His6-MBP-Ctc1/Stn1/Ten1 [4] = molecular target: T2, His6-MBP-Ctc1/Stn1/Ten1; assay: cryo-EM structure
His6-MBP-Ctc1 [5] = molecular target: T1, His6-MBP-Ctc1; assay: cryo-EM structure; remark: listed apart in the source
[6] = molecular target: T3, TwinStrep-GFP-TPP1 OB+RD (aa 1–251) (human, UniProt Q96AP0 1-251); assay: cryo-EM structure
T3 sequence: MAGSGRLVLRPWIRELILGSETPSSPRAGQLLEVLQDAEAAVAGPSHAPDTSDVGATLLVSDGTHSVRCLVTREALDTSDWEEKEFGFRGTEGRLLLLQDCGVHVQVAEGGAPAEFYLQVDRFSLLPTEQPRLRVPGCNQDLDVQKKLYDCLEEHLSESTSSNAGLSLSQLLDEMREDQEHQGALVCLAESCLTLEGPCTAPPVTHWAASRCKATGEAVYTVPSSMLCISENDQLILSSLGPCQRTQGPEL

T2 sequence (Q86WV5 whole entry, one chain of several): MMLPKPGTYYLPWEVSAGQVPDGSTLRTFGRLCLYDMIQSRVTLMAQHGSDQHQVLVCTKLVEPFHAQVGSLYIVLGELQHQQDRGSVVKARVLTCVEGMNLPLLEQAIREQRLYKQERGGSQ
Sequence of CST with the His6-MBP tag cleaved (Q86WV5 whole entry, one chain of several): as above

- binding result [3]: binds
- binding result (His6-MBP-Ctc1/Stn1/Ten1 [4]): binds
B4: His6-POT1(ESDL)/TwinStrep-GFP-TPP1 (complex)
chain 1: MSLVPATNYIYTPLNQLKGGTIVNVYGVVKFFKPPYLSKGTDYCSVVTIVDQTNVKLTCLLFSGNYEALPIIYKNGDIVRFHRLKIQVYKKETQGITSSGFASLTFEGTLGAPIIPRTSSKYFNFTTEDHKMVEALRVWASTHMSPSWTLLKLCDVQPMQYFDLTCQLLGKAEVDGASFLLKVWDGTRTPFPSWRVLIQDLVLEGDLSHIHRLQNLTIDILVYDNHVHVARSLKVGSFLRIYSLHTKLQSMNSENQTMLSLEFHLHGGTSYGRGIRVLPESNSDVDQLKKDLESANLTANQHSDVICQSEPDDSFPSSGSESDLVSLYEVERCQQLSATILTDHQYLERTPLCAILKQKAPQQYRIRAKLRSYKPRRLFQSVKLHCPKCHLLQEVPHEGDLDIIFQDGATKTPDVKLQNTSLYDSKIWTTKNQKGRKVAVHFVKNNGILPLSNECLLLIEGGTLSEICKLSNKFNSVIPVRSGHEDLELLDLSAPFLIQGTIHHYGCKQCSSLRSIQNLNSLVDKTSWIPSSVAEALGIVPLQYVFVMTFTLDDGTGVLEAYLMDSDKFFQIPASEVLMDDDLQKSVDMIMDMFCPPGIKIDAYPWLECFIKSYNVTNGTDNQICYQIFDTTVAEDVI
chain 2: T3 sequence
modifications: phosphorylated in insect cells (sites not identified)

- binding result (His6-MBP-Ctc1 [5]): binds
- binding result [6]: binds
B5: POT1(ESDL) (natural protein)
chain: B4 chain 1
modifications: phosphorylated in insect cells (sites not identified)

More lines, now with the values behind:

B1: Stn1 (natural protein)
chain: MQPGSSRCEEETPSLLWGLDPVFLAFAKLYIRDILDMKESRQVPGVFLYNGHPIKQVDVLGTVIGVRERDAFYSYGVDDSTGVINCICWKKLNTESVSAAPSAARELSLTSQLKKLQETIEQKTKIEIGDTIRVRGSIRTYREEREIHATTYYKVDDPVWNIQIARMLELPTIYRKVYDQPFHSSALEKEEALSNPGALDLPSLTSLLSEKAKEFLMENRVQSFYQQELEMVESLLSLANQPVIHSASSDQVNFKKDTTSKAIHSIFKNAIQLLQEKGLVFQKDDGFDNLYYVTREDKDLHRKIHRIIQQDCQKPNHMEKGCHFLHILACARLSIRPGLSEAVLQQVLELLEDQSDIVSTMEHYYTAF
- binding result (His6-MBP-Ctc1 [1]): binds

B2: POT1(SED)/GFP-TPP1 (complex)
chain 1: MSLVPATNYIYTPLNQLKGGTIVNVYGVVKFFKPPYLSKGTDYCSVVTIVDQTNVKLTCLLFSGNYEALPIIYKNGDIVRFHRLKIQVYKKETQGITSSGFASLTFEGTLGAPIIPRTSSKYFNFTTEDHKMVEALRVWASTHMSPSWTLLKLCDVQPMQYFDLTCQLLGKAEVDGASFLLKVWDGTRTPFPSWRVLIQDLVLEGDLSHIHRLQNLTIDILVYDNHVHVARSLKVGSFLRIYSLHTKLQSMNSENQTMLSLEFHLHGGTSYGRGIRVLPESNSDVDQLKKDLESANLTANQHSDVICQSEPDDSSPESDSVSLYEVERCQQLSATILTDHQYLERTPLCAILKQKAPQQYRIRAKLRSYKPRRLFQSVKLHCPKCHLLQEVPHEGDLDIIFQDGATKTPDVKLQNTSLYDSKIWTTKNQKGRKVAVHFVKNNGILPLSNECLLLIEGGTLSEICKLSNKFNSVIPVRSGHEDLELLDLSAPFLIQGTIHHYGCKQCSSLRSIQNLNSLVDKTSWIPSSVAEALGIVPLQYVFVMTFTLDDGTGVLEAYLMDSDKFFQIPASEVLMDDDLQKSVDMIMDMFCPPGIKIDAYPWLECFIKSYNVTNGTDNQICYQIFDTTVAEDVI
chain 2: T3 sequence
- binding result (His6-MBP-Ctc1/Stn1/Ten1 [2]): binds

B3: POT1(SED)/GFP-TPP1 treated with λ protein phosphatase (complex)
chain 1: B2 chain 1
chain 2: T3 sequence
modifications: dephosphorylated with λ protein phosphatase | dephosphorylated with λ protein phosphatase
- binding result (His6-MBP-Ctc1/Stn1/Ten1 [2]): binds

Source: publication PMC10197580 (bioRxiv, 2023)
